# Measured values taken from US20220064331A1 (Genentech, published 2022).
# T1: FGFR1b (human, UniProt P11362-19 22-376, limits assumed)
# T1 construct: soluble protein in SPR and ELISA, whole receptor on L6 cells in the luciferase assay
# T1 sequence (looked up): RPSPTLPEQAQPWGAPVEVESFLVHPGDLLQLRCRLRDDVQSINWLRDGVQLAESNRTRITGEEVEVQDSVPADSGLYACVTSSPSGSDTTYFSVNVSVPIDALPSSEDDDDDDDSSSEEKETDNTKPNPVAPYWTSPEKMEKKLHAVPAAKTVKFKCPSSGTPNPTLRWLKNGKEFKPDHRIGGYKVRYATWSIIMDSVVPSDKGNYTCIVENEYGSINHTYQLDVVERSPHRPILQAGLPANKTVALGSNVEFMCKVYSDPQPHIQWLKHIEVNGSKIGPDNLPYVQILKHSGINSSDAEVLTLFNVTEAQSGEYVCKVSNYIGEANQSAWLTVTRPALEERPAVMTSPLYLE
# B1: YW182.2 (antibody, V domains shown)
# VH: EVQLVESGGGLVQPGGSLRLSCAASGFTFTSTWISWVRQAPGKGLEWVGEIDPYDGDTYYADSVKGRFTISADTSKNTAYLQMNSLRAEDTAVYYCATEHFDAWVHYYVMDYWGQGTLVTVSS
# VL: DIQMTQSPSSLSASVGDRVTITCRASQDVSTAVAWYQQKPGKAPKLLIYSASFLYSGVPSRFSGSGSGTDFTLTISSLQPEDFATYYCQQSYTTPPTFGQGTKVEIK
# B2: hFGF21 (ligand, human, UniProt Q9NSA1 29-209, looked up)
# chain: HPIPDSSPLLQFGGQVRQRYLYTDDAQQTEAHLEIREDGTVGGAADQSPESLLQLKALKPGVIQILGVKTSRFLCQRPDGALYGSLHFDPEACSFRELLLEDGYNVYQSEAHGLPLHLPGNKSPHRDPAPRGPARFLPLPGLPPALPEPPGILAPQPPDVGSSDPLSMVGPSQGRSPSYAS
# notes: also called recombinant FGF21
# Key:
# FGFR1b = target: T1, FGFR1b; experiment: SPR (BIACORE T100), antibody captured by anti-human Fc on a CM5 chip, FGFR1 ECD protein injected, 25 °C, 1:1 Langmuir fit
# [1] = target: T2, human KLB / human FGFR1c complex on cells (human, UniProt Q86Z14 53-1044; P11362 22-822); experiment: radiolabeled ligand competition binding (iodinated FGF21) on HEK293 cells expressing human FGFR1c and human KLB
# T2 construct: both receptors co-expressed on HEK293 (or L6) cells; also called FGFR1c/KLB complex; 293huKLB/huR1c
# Description: For the radioligand cell binding assay, HEK293 cells that stably co-expressing KLB and/or FGFR1c were placed into 96-well plate at a density of 100,000 to 200,000 cells per 0.2 mL in binding buffer (DMEM with 1% bovine serum albumin (BSA), 50 mM HEPES, pH 7.2, 0.1% sodium azide and 350 mM human IgG). […] Competition reactions with cells were incubated for 2 h at room temperature.
# [2] = target: T2, human KLB / human FGFR1c complex on …; experiment: cell-based or functional assay
Binder,Kd (FGFR1b),koff (FGFR1b),kon (FGFR1b),Kd [1],EC50 in GAL-ELK1 assay in HEK293 cells [2]
B1,1.13 nM,0.0022 s⁻¹,1.9e+06 M⁻¹ s⁻¹,,
B2,,,,5.3 nM,4.7 nM
